In US6448376:

Target: LexA-DP-1 (pLEX(HIS).DP-1: complete bacterial LexA protein fused to DP-1 residues 59 to 410) (bacterial; murine) (UniProt Q08639)
Test: cell-based or functional assay

Sequence of UniProt Q08639 (Q08639 59-410): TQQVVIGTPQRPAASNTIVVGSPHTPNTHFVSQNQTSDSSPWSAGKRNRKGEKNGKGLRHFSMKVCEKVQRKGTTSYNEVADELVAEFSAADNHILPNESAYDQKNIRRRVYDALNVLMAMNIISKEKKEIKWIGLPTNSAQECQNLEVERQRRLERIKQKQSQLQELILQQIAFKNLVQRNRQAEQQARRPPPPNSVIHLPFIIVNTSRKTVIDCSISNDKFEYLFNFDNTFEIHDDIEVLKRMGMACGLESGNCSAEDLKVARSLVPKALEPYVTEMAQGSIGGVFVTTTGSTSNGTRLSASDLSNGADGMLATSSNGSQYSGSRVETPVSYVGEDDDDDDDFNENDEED

- transcriptional activity of the E2F site reporter p4xWT CYC1 in yeast: > 6 fold
Substance: GAD-E2F-5 (pGAD.E2F-5: entire murine E2F-5 as a hybrid with the GAL4 activation domain 768-881) (from UniProt P04386 768-881)
